Reference: paper PMC7733947, “The Key Glycolytic Enzyme Phosphofructokinase Is Involved in Resistance to Antiplasmodial Glycosides” (mBio, 2020)

Test system: Nc1ncnc2c1ncn2[C@@H]1O[C@H](COP(=O)(O)O)[C@@H](O)[C@H]1O
Test: purified protein

Substance	Km
PfHAD1 (Plasmodium falciparum 3D7)	4.11 ± 0.88 mM
PfHAD2 (Plasmodium falciparum 3D7)	4.09 ± 0.55 mM
